These results are taken from publication PMC7577714, “Regulation of chaperone function by coupled folding and oligomerization” (Science Advances, 2020).

In general, stoichiometry N refers to the number of molecules, sites or subunits per partner or assembly.

In data set [1] the target is tOmpA, the eight-stranded transmembrane domain of OmpA (residues 1 to 177). Nature of the data set: NMR quantification of Skp-bound tOmpA after complex assembly (holdase assay); excess of denatured [U-2H,15N]-tOmpA added dropwise to unlabeled Skp in 20 mM MES pH 6.5, 150 mM NaCl, aggregate spun down, tOmpA signals in 2D [15N,1H]-TROSY of the supernatant, 37°C, normalised to Skp(WT).

In data set [2] the target is Skp(V117P) (E. coli) (UniProt P0AEU7). Nature of the data set: solution NMR (signal intensities of monomer and trimer) + SEC-MALS; fraction of monomer against total Skp concentration, 25°C, 20 mM MES pH 6.5, 150 mM NaCl; monomer to trimer; C0.5 is the protein concentration at which half of the molecules are monomeric. Background: SEC sorts molecules by how far they enter the pores of the column.

The target of data set [3] is P0AEU7. Nature of the data set: SEC-MALS; Skp variants alone, elution concentration ≃80 μM, 25°C, 20 mM MES pH 6.5, 150 mM NaCl; monomer to trimer.
Data set [4] concerns the molecule itself. The description is as above.
Data set [5] concerns the molecule itself. The description is as above. This is another data set of the same source.
Data set [6] deals with the molecule itself. Nature of the data set: solution NMR (signal intensities of monomer and trimer) + SEC-MALS; fraction of monomer against total Skp concentration, 25°C, 20 mM MES pH 6.5, 150 mM NaCl; monomer to trimer; C0.5 is the protein concentration at which half of the molecules are monomeric.
Data set [7] deals with the molecule itself. The data set is described as above. The source holds these as a separate data set.
In data set [8] the target is P0AEU7. Nature of the data set: solution NMR (signal intensities of monomer and trimer); Skp variants alone at 37°C, 20 mM MES pH 6.5, 150 mM NaCl; monomer to trimer. As to conditions: other: solution NMR (signal intensities of monomer and trimer).

Substitutions are numbered along the chain they refer to. In names and notes the source's numbering stands.

As to “Skp(V117P) (from UniProt P0AEU7 21-161) (natural protein)”, in data set [1], the Skp activity (% of WT), amount of Skp-bound tOmpA is 1 % of WT. Besides, in data set [2], the C0.5 is over 1000 µM.

B1: Skp(WT), seventeen kilodalton protein, periplasmic chaperone of Escherichia coli (natural protein, E. coli, UniProt P0AEU7 21-161, looked up)
chain: ADKIAIVNMGSLFQQVAQKTGVSNTLENEFKGRASELQRMETDLQAKMKKLQSMKAGSDRTKLEKDVMAQRQTFAQKAQAFEQDRARRSNEERGKLVTRIQTAVKSVANSQDIDLVVDANAVAYNSSDVKDITADVLKQVK
notes: Stands in a monomer-trimer equilibrium; the active form is the homotrimer; The thrombin-cleavable His6-tag of pET28b was not cleaved; Isotope-labelled for NMR in some samples; source: E. coli BL21-(λ DE3)-Lemo, purified (Ni-NTA, SEC); not shown: His6, N-terminal, kept
For the molecule B1, in data set [3], the Monomer (%) at c ≃ 80 μM was found to be 3%. Besides, the “stoichiometry N” value in data set [4] stood at 3. Also, the “Trimer (%) at c ≃ 80 μM” value in data set [5] was 97%. The Skp activity (% of WT), amount of Skp-bound tOmpA in data set [1] is 100 % of WT. Besides, the C0.5 in data set [6] came to 1.5 µM.

B2: Skp(A108R) (natural protein, E. coli, UniProt P0AEU7 21-161, looked up)
chain: B1 chain with A108R
notes: Fully monomeric up to 1 mM; source: E. coli BL21-(λ DE3)-Lemo, purified (Ni-NTA, SEC); not shown: His6, N-terminal, kept
With B2, the Skp activity (% of WT), amount of Skp-bound tOmpA in data set [1] is 1 % of WT. Further, the C0.5 in data set [6] is over 1000 µM.

B3: Skp(A103R) (natural protein, E. coli, UniProt P0AEU7 21-161, looked up)
chain: B1 chain with A103R
notes: Monomer-trimer equilibrium shifted toward the monomer; source: E. coli BL21-(λ DE3)-Lemo, purified (Ni-NTA, SEC); not shown: His6, N-terminal, kept
With B3, the Monomer (%) at c ≃ 80 μM in data set [3] turned out to be 14%. In addition, the “Trimer (%) at c ≃ 80 μM” value in data set [5] is 86%. Moreover, in data set [1], the Skp activity (% of WT), amount of Skp-bound tOmpA is 87 % of WT. Also, the C0.5 in data set [6] came to 7 ± 2 µM. Besides, in data set [7], the “stoichiometry N” value was found to be 3.

B4: Skp(A108L) (natural protein, E. coli, UniProt P0AEU7 21-161, looked up)
chain: B1 chain with A108L
notes: Monomer-trimer equilibrium strongly shifted toward the monomer; also called Skp(108L); source: E. coli BL21-(λ DE3)-Lemo, purified (Ni-NTA, SEC); not shown: His6, N-terminal, kept
B4 gave a Monomer (%) at c ≃ 80 μM in data set [3] of 53%. Moreover, in data set [8], the “monomer (%) at 1 mM, 37°C” value was “around 95% monomer at a concentration of 1 mM” and the “monomer (%) at 37°C” value is “more than 80% in its monomeric state”. For the same molecule, in data set [5], the “Trimer (%) at c ≃ 80 μM” value is 47%. In addition, in data set [1], the Skp activity (% of WT), amount of Skp-bound tOmpA was 55 % of WT. Besides, in data set [6], the C0.5 was 80 ± 20 µM. For the same molecule, in data set [7], the “stoichiometry N” value stood at 3.

B5: Skp(A103L) (natural protein, E. coli, UniProt P0AEU7 21-161, looked up)
chain: B1 chain with A103L
notes: Monomer-trimer equilibrium essentially as the wild type; source: E. coli BL21-(λ DE3)-Lemo, purified (Ni-NTA, SEC); not shown: His6, N-terminal, kept
B5 showed a Monomer (%) at c ≃ 80 μM in data set [3] of 6%. Besides, the “Trimer (%) at c ≃ 80 μM” value in data set [5] amounted to 94%. Also, the Skp activity (% of WT), amount of Skp-bound tOmpA in data set [1] is 100 % of WT. Also, the C0.5 in data set [6] is 1.5 µM. For the same molecule, in data set [7], the “stoichiometry N” value is 3.
